From article PMC10786891, “Massively parallel profiling of RNA-targeting CRISPR-Cas13d”
Positions count from the first letter of the chain named. Names and notes keep the numbering of the source.

T1: EsCas13d, nuclease-dead (Eubacterium siraeum, UniProt B0MS50, R295A;H300A;R849A;H854A)
T1 sequence: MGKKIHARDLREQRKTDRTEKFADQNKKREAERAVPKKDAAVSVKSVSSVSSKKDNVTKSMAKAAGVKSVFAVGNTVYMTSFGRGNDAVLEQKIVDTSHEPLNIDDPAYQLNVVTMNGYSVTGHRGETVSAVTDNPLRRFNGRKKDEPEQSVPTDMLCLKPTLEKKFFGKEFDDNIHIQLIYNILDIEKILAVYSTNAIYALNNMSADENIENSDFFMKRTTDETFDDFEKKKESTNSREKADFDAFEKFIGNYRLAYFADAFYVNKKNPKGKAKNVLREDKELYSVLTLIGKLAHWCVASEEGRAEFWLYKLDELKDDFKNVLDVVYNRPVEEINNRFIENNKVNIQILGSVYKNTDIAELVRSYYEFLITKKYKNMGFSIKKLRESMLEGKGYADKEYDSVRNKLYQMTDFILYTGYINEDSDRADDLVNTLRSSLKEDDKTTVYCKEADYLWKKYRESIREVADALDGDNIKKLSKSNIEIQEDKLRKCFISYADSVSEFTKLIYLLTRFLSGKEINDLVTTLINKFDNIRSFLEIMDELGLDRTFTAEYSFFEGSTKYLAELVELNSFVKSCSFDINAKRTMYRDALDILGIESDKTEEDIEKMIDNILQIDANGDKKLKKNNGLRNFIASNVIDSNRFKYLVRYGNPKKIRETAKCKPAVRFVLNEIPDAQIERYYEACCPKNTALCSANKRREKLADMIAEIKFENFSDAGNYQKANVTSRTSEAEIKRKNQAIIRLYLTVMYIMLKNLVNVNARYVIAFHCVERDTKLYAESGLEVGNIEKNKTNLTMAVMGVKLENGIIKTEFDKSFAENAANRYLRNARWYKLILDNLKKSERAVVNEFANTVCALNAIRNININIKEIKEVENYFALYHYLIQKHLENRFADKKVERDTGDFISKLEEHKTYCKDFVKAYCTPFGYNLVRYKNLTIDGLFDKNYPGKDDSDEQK

B1: target 1 C2A,A9G (mixed)
RNA 1: CACCCGUGCAAAAAUGCAGGGGUCUAAAACUGAGCGGAUAACCUCUCUAUGG
RNA 2: GGGAAUGGAUCCACAUCUACGAAUUCGUACCAUAGAGAGGUUGUCCGCUAACCGAGAUCGGAAGAGCACACGU
B2: target 1 complement block 7-10 (mixed)
RNA 1: B1 RNA 1
RNA 2: B1 RNA 2 with U42A, G43U, U44A, C45G, A50C
B3: target 1 insU 3' of 21,insU 3' of 7 (mixed)
RNA 1: B1 RNA 1
RNA 2: GGGAAUGGAUCCACAUCUACGAAUUCGUACCUAUAGAGAGGUUAUCUCGCUCACCGAGAUCGGAAGAGCACACGU
B4: target 1 insU 3' of 9,insC 3' of 9 (mixed)
RNA 1: B1 RNA 1
RNA 2: GGGAAUGGAUCCACAUCUACGAAUUCGUACCAUAGAGAGGUUAUCUCCGCUCACCGAGAUCGGAAGAGCACACGU
B5: target 1 U10C,C21A (mixed)
RNA 1: B1 RNA 1
RNA 2: B1 RNA 2 with C31A, U42C, G43A, A50C
B6: target 1 insC 3' of 22,insU 3' of 12 (mixed)
RNA 1: B1 RNA 1
RNA 2: B3 RNA 2 with U32C, A44U, U45A, C46U, U47C
B7: target 1 complement block 5-12 (mixed)
RNA 1: B1 RNA 1
RNA 2: B1 RNA 2 with G40C, U41A, U42A, G43U, U44A, C45G, C46G, G47C, A50C
B8: target 1 U3C,U10G (mixed)
RNA 1: B1 RNA 1
RNA 2: B1 RNA 2 with U42G, G43A, U49C, A50C
B9: target 1 insU 3' of 5,insU 3' of 2 (mixed)
RNA 1: B1 RNA 1
RNA 2: B4 RNA 2 with U46C, C47G, C48U, G49C, C50U, U51C, C52U
B10: target 1 G12C,A16G (mixed)
RNA 1: B1 RNA 1
RNA 2: B1 RNA 2 with A36G, G40C, G43A, A50C
B11: target 1 C4A,G15A (mixed)
RNA 1: B1 RNA 1
RNA 2: B1 RNA 2 with G37A, G43A, C48A, A50C
B12: target 1 insU 3' of 21,insA 3' of 17 (mixed)
RNA 1: B1 RNA 1
RNA 2: B3 RNA 2 with G38A, A39G, G40A, U42G, A44U, U45A, C46U, U47C
B13: target 1 U19G,A20U (mixed)
RNA 1: B1 RNA 1
RNA 2: B1 RNA 2 with A32U, U33G, G43A, A50C
B14: target 1 insU 3' of 22,insG 3' of 4 (mixed)
RNA 1: B1 RNA 1
RNA 2: B3 RNA 2 with C31U, U32C, U47C, C48G, G49C, C50G
B15: target 1 U11G (mixed)
RNA 1: B1 RNA 1
RNA 2: B1 RNA 2 with U41G, G43A, A50C
B16: target 1 insA 3' of 17,insG 3' of 7 (mixed)
RNA 1: B1 RNA 1
RNA 2: B3 RNA 2 with U32A, A33U, U34A, A35G, G36A, U47G
B17: target 1 insC 3' of 10,insU 3' of 4 (mixed)
RNA 1: B1 RNA 1
RNA 2: B4 RNA 2 with A43C, U44A, C45U, U46C, C48G, G49C, C50U
B18: target 1 insA 3' of 19,insC 3' of 13 (mixed)
RNA 1: B1 RNA 1
RNA 2: B4 RNA 2 with G35A, A36G, G37A, A38G, G39A, U41C, U42G, A43U, C45A
B19: target 1 G5A,U11G (mixed)
RNA 1: B1 RNA 1
RNA 2: B1 RNA 2 with U41G, G43A, G47A, A50C
B20: target 1 insU 3' of 18,insC 3' of 10 (mixed)
RNA 1: B1 RNA 1
RNA 2: B3 RNA 2 with U32A, A33U, U34A, A35U, A44C, U45A, C46U, U47C
B21: target 1 insG 3' of 22,insU 3' of 6 (mixed)
RNA 1: B1 RNA 1
RNA 2: B3 RNA 2 with C31G, U32C, U47C, C48U
B22: target 1 G5U,C21U (mixed)
RNA 1: B1 RNA 1
RNA 2: B1 RNA 2 with C31U, G43A, G47U, A50C
B23: target 1 C7G,G13U (mixed)
RNA 1: B1 RNA 1
RNA 2: B1 RNA 2 with G39U, G43A, C45G, A50C
B24: target 1 insA 3' of 17,insC 3' of 16 (mixed)
RNA 1: B1 RNA 1
RNA 2: B4 RNA 2 with G37A, A38C, G40A, U41G, U42G, A43U, C45A
B25: target 1 insG 3' of 18,insG 3' of 18 (mixed)
RNA 1: B1 RNA 1
RNA 2: B4 RNA 2 with A36G, G40A, U41G, U42G, A43U, C45A
B26: target 1 insA 3' of 12,insU 3' of 1 (mixed)
RNA 1: B1 RNA 1
RNA 2: GGGAAUGGAUCCACAUCUACGAAUUCGUACCAUAGAGAGGAUUAUCCGCUCAUCCGAGAUCGGAAGAGCACACGU
B27: target 1 U11G,A16G (mixed)
RNA 1: B1 RNA 1
RNA 2: B1 RNA 2 with A36G, U41G, G43A, A50C
B28: target 1 insU 3' of 14,insC 3' of 14 (mixed)
RNA 1: B1 RNA 1
RNA 2: B4 RNA 2 with G39U, G40C, U41G, U42G, A43U, C45A
B29: target 1 C4A,G13A (mixed)
RNA 1: B1 RNA 1
RNA 2: B1 RNA 2 with G39A, G43A, C48A, A50C
B30: target 1 insA 3' of 8,insU 3' of 7 (mixed)
RNA 1: B1 RNA 1
RNA 2: B4 RNA 2 with C45A, U46C, C47U
B31: target 1 A1G,U8G (mixed)
RNA 1: B1 RNA 1
RNA 2: B1 RNA 2 with G43A, U44G, A50C, A51G
B32: target 1 insA 3' of 8,insG 3' of 2 (mixed)
RNA 1: B1 RNA 1
RNA 2: B26 RNA 2 with A41U, U43A, A44U, U45A, A52G, U53A
B33: target 1 U10A,A14G (mixed)
RNA 1: B1 RNA 1
RNA 2: B1 RNA 2 with A38G, U42A, G43A, A50C
B34: target 1 insU 3' of 17,insC 3' of 13 (mixed)
RNA 1: B1 RNA 1
RNA 2: B4 RNA 2 with A36U, G37A, A38G, G39A, U41C, U42G, A43U, C45A
B35: target 1 U11C,C22A (mixed)
RNA 1: B1 RNA 1
RNA 2: B1 RNA 2 with C30A, U41C, G43A, A50C

These binders were tested against T1, EsCas13d, nuclease-dead (assay: crRNA (strand 1, pre-loaded); Mg2+; 40 mM Tris-HCl pH 7.5, 150 mM NaCl, 6 mM MgCl2, 1 mM DTT, 0.1% Tween-20, 0.2 mg/ml BSA; 25 C; 10 min per concentration, then washed). Conditions: tags: His6-TwinStrep-SUMO cleaved; N-terminal SNAP kept (SNAP-Surface 488); label: 3' end held by stalled T7 RNA polymerase.

Binder	Kd [nM]
B1	11.7 ± 0.9
B2	11.7 ± 0.7
B3	54 ± 4
B4	21.5 ± 1.6
B5	60 ± 8
B6	16.8 ± 1.2
B7	15.8 ± 1.5
B8	26 ± 2.7
B9	14.8 ± 1.3
B10	75 ± 10
B11	20.9 ± 1.8
B12	~100
B13	96 ± 35
B14	22.3 ± 1.5
B15	22.4 ± 1.2
B16	11.5 ± 0.6
B17	12.7 ± 1.1
B18	35.3 ± 3.3

Binder	Kd [nM]
B19	51 ± 5
B20	65 ± 24
B21	49 ± 7
B22	5.96 ± 0.31
B23	54 ± 13
B24	11.6 ± 0.7
B25	48 ± 4
B26	37 ± 10
B27	53 ± 6
B28	37 ± 4
B29	14 ± 4
B30	12.8 ± 0.5
B31	24.5 ± 1.8
B32	16.7 ± 0.8
B33	12.3 ± 0.5
B34	44 ± 9
B35	21.3 ± 1.5
